Measured values as given in PMC5766498 (Nature Communications, 2018).
Where a chain is given by its changes, count along the chain named. Numbers in names are those of the source.

B1: GST-tagged RNF168 UDM2 (residues 419-487) (domain or fragment, human, UniProt Q8IYW5 419-487, looked up)
chain: EETEINFTQKLIDLEHLLFERHKQEEQDRLLALQLQKEVDKEQMVPNRQKGSPDEYHLRATSSPPDKVL
notes: RNF168, human, residues 419-487 (UDM2); source: E. coli Rosetta (DE3), purified (Glutathione Sepharose)
B2: GST-tagged RNF168 MIU1 (residues 161-194) (domain or fragment, human, UniProt Q8IYW5 161-194, looked up)
chain: AEKRRRAMEEQLKSDEELARKLSIDINNFCEGSI
notes: RNF168, human, residues 161-194 (MIU1 alone); This construct is not in the methods' list of constructs; its limits stand in the results only; also called MIU1 alone; source: E. coli Rosetta (DE3), purified (Glutathione Sepharose)
B3: GST-tagged RNF168 MIU2 (residues 436-462) (domain or fragment, human, UniProt Q8IYW5 436-462, looked up)
chain: LFERHKQEEQDRLLALQLQKEVDKEQM
notes: RNF168, human, residues 436-462 (MIU2); source: E. coli Rosetta (DE3), purified (Glutathione Sepharose)
B4: GST-tagged RNF168 UMI (residues 134-166) (domain or fragment, human, UniProt Q8IYW5 134-166, looked up)
chain: SEEEENKASEEYIQRLLAEEEEEEKRQAEKRRR
notes: Cloned into pCold-GST; source: E. coli Rosetta (DE3), purified (Glutathione Sepharose)
B5: GST-tagged RNF168 UDM2ΔC (residues 419-462) (domain or fragment, human, UniProt Q8IYW5 419-462, looked up)
chain: EETEINFTQKLIDLEHLLFERHKQEEQDRLLALQLQKEVDKEQM
notes: RNF168, human, residues 419-462 (UDM2ΔC); also called UAD–MIU2; source: E. coli Rosetta (DE3), purified (Glutathione Sepharose)
B6: GST-tagged RNF168 UDM2ΔC (L436T) (domain or fragment, human, UniProt Q8IYW5 419-462, looked up)
chain: B5 chain with L18T
notes: RNF168, human, residues 419-462 (UDM2ΔC) with L436T; source: E. coli Rosetta (DE3), purified (Glutathione Sepharose)
B7: GST-tagged RNF168 UDM2ΔC (R439A) (domain or fragment, human, UniProt Q8IYW5 419-462, looked up)
chain: B5 chain with R21A
notes: RNF168, human, residues 419-462 (UDM2ΔC) with R439A; source: E. coli Rosetta (DE3), purified (Glutathione Sepharose)
B8: GST-tagged RNF168 UDM2ΔC (E433R) (domain or fragment, human, UniProt Q8IYW5 419-462, looked up)
chain: B5 chain with E15R
notes: RNF168, human, residues 419-462 (UDM2ΔC) with E433R; source: E. coli Rosetta (DE3), purified (Glutathione Sepharose)
B9: GST-tagged RNF168 LRM1 (L116A)-UMI (domain or fragment, human, UniProt Q8IYW5 110-166, looked up)
chain: LSKPGEARREYEEEISKVAAERRASEEEENKASEEYIQRLLAEEEEEEKRQAEKRRR
notes: source: E. coli Rosetta (DE3), purified (Glutathione Sepharose)
B10: GST-tagged RNF168 LRM1-UMI (residues 110-166) (domain or fragment, human, UniProt Q8IYW5 110-166, looked up)
chain: B9 chain with A7L
notes: Cloned into pCold-GST; also called N-terminal part of UDM1; source: E. coli Rosetta (DE3), purified (Glutathione Sepharose)
B11: GST-tagged RNF168 LRM1 (Y120A)-UMI (domain or fragment, human, UniProt Q8IYW5 110-166, looked up)
chain: B9 chain with A7L, Y11A
notes: as for B9
B12: GST-tagged RNF168 LRM1-UMI (S142A) (domain or fragment, human, UniProt Q8IYW5 110-166, looked up)
chain: B9 chain with A7L, S33A
notes: as for B9
B13: GST-tagged RNF168 LRM1-UMI (L149A) (domain or fragment, human, UniProt Q8IYW5 110-166, looked up)
chain: B9 chain with A7L, L40A
notes: as for B9
B14: untagged RNF168 UDM2ΔC (residues 419-462) (domain or fragment, human, UniProt Q8IYW5 419-462, looked up)
chain: B5 chain
notes: RNF168, human, residues 419-462 (UDM2ΔC); also called UDM2ΔC (untagged); UAD–MIU2; source: E. coli Rosetta (DE3), purified (Glutathione Sepharose, HRV3C cleavage, ResourceQ, Superdex75)
B15: untagged RNF168 LRM1-UMI (residues 110-166) (domain or fragment, human, UniProt Q8IYW5 110-166, looked up)
chain: B9 chain with A7L
notes: Printed as untagged; also called LRM1–UMI (untagged); source: E. coli Rosetta (DE3), purified
B16: His6-fused RNF168 UMI-MIU1 (residues 134-188) (domain or fragment, human, UniProt Q8IYW5 134-188, looked up)
chain: SEEEENKASEEYIQRLLAEEEEEEKRQAEKRRRAMEEQLKSDEELARKLSIDINN
notes: source: E. coli, purified (Ni-NTA, then as UDM2ΔC)

Target: T1, Met1-linked diUb (M1-Ub2) (human, UniProt P0CG47 1-76; P0CG47 1-76)
T1 construct: ubiquitin, human, first (distal) moiety of the linear diUb; ubiquitin, human, second (proximal) moiety, its Met1 joined to Gly76 of the first; Expressed from a human M1-Ub2 gene as one chain; source: E. coli Rosetta (DE3), pET26b, purified (heat step, ResourceS, Superdex75)
Assay: SPR; GST-fused RNF168 domains captured by immobilised anti-GST antibody on CM5 chip (1000-1500 RU); Ub2 species injected 60 s at 10 µL per min; HBS-P (10 mM HEPES-Na pH 7.4, 150 mM NaCl, 0.05% P20), 25 °C; steady-state fit, 1:1 model
Settings: both partners purified

Row | Kd | Binder
1 | 238 µM | B1
2 | 233 µM | B2
3 | 235 µM | B3
4 | 306 µM | B4
5 | 221 µM | B5
6 | 160 µM | B6
7 | 495 µM | B7
8 | 214 µM | B8
9 | 206 µM | B9
10 | 231 µM | B10
11 | 236 µM | B11
12 | 965 µM | B12
13 | 1150 µM | B13

Target: T1, Met1-linked diUb (M1-Ub2)
Assay: SPR; untagged LRM1-UMI or UDM2ΔC covalently immobilised on CM5 by amine coupling (10 mM sodium acetate pH 4.0 or 4.5); Ub2 species injected; HBS-P, 25 °C; steady-state fit, 1:1 model
Settings: both partners purified

Row | Kd | Binder
14 | 145 µM | B14
15 | 200 µM | B15

Target: T1, Met1-linked diUb (M1-Ub2)
Assay: pull-down; 100 µg His6-fused RNF168 on Ni-NTA beads, 15 µg Ub2 species, 25 mM Tris-HCl pH 8.0, 20 mM imidazole, 0.1% Triton X-100, 100 mM NaCl, on ice 2 h; SDS-PAGE, Coomassie (Supplementary Fig. 1a)
Settings: both partners purified

Row | binding result | Binder
16 | binds | B16
